Source: US20220112288A1 (published 2022)

Assays:
[1] = target: T1, Recombinant human CD4 (R&D Systems, Cat. 10327-CD) (human, UniProt P01730 26-390, limits assumed); test: BLI (Octet Red384), purified antibody on anti-mouse Fc sensors, human CD4 100/50/25 nM, global 1:1 fit;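 further: antibodies loaded at 10 µg/mL, curves fitted across association and dissociation phases, with an unrelated mouse-derived antibody serving as internal reference control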
T1 construct: Bought protein; also called huCD4

[2] = target: T2, Recombinant human CD4 (R&D Systems, Cat. 10327-CD) (human, UniProt P01730 26-390, limits assumed); test: BLI Octet, mAb on anti-mouse Fc sensor, CD4 100/50/25 nM, 1:1 global fit;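 further: antibodies loaded at 10 µg/mL, an unrelated mouse-derived antibody served as internal reference control, association and dissociation phases fitted after Savitzky-Golay smoothing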
T2 construct: Soluble analyte in the Octet assay

| Kd [1] | Response [1] | koff [1] | kon [1] | Kd [2] | Response [2] | koff [2] | kon [2] | Binder |
| --- | --- | --- | --- | --- | --- | --- | --- | --- |
| 11 nM | 0.17 | 0.0014 s⁻¹ | 130000 M⁻¹ s⁻¹ | – | – | – | – | 75110_14N19A (antibody, V domains shown, Tested as antibody purified from AlivaMab Mouse Kappa hybridoma (human V regions, kappa light chain, mouse Fc captured by anti-mouse Fc sensors)) VH: QVQLQESGPGLVKPSETLSLTCTVSGGSISRYYWSWIRQPAGKGLEWIGRICTSENPNYNPALKSRVTMSVDTSKNQFSLKLSSVTAADTAVYYCARELERLNYYGMDVWGQGTTVTVSS VL: DIQMTQFPSSLSASVGDRVTITCQASQDISNYLNWYQQKPGKAPKLLIYDASNLESGVPSRFSGRGSGTDFTFTISSLQPEDFATFYCQQYDTLPITFGQGTRLEIK |
| – | – | – | – | 13 nM | 0.27 | 0.0017 s⁻¹ | 130000 M⁻¹ s⁻¹ | 75110_01D24A (antibody, V domains shown, Tested as antibody purified from AlivaMab Mouse hybridoma supernatant (captured by anti-mouse IgG Fc)) VH: QVQLQQWGAGLLKPSETLSLTCAVYGGSFSGYYWSWIRQPPGKGLEWIGEINHSGSTNYNPSLKSRVTISVDTSENQFSLKLNSVTAADTAVYYCARLVNWFDPWGQGTLVTVSS VL: EIQMTQSPSSVSASVGDRVTITCRASQDISNWLAWYQQKPGKAPNLLIFAASSLQTGVPSRFSGSGSGTDFTLTISSLQPDDFATYYCQQANSFPYSFGQGTNLGIK |
| – | – | – | – | 5.5 nM | 0.22 | 0.00076 s⁻¹ | 140000 M⁻¹ s⁻¹ | 75110_03L12A (antibody, V domains shown, Tested as antibody purified from AlivaMab Mouse hybridoma supernatant (captured by anti-mouse IgG Fc)) VH: QVQLQQWGAGLLKPSETLSLTCAVYGGSFSGYYWSWIRQPPGKGLEWIGEINHSGSTNYNPSLKSRVTISVDTSENQFSLTLISVTAADTAVYYCVRLINWFDPWGQGTLVTVSS VL: DIQMTQSPSSVSASVGDRVTITCRASQDISNWLAWYQQKPGKAPKLLIFAASSLQSGVPSRFSGSGSGTDFTLTISSLQPDDFATYYCQQANSFPYTFGQGTNLGIK |
| 10 nM | 0.14 | 0.0017 s⁻¹ | 160000 M⁻¹ s⁻¹ | – | – | – | – | 75110_14I16A (antibody, V domains shown, Tested as antibody purified from AlivaMab Mouse Kappa hybridoma (human V regions, kappa light chain, mouse Fc captured by anti-mouse Fc sensors); also called 75110_14116A) VH: QVQLQESGPGLVKPSETLSLTCTVSNGSISSYYWSWIRQSAGKGLEWIGRIYTSGSTNYNPSLKSRVTMLVDTSKNQFSLKLSSVTAADTAVYYCARDREDYYYYGMDVWGQGTTVTVSS VL: DIQMTQSPSSLSASVGDRVTITCQASHDISNYLNWYQQKPGKAPKLLLYYASNLETGVPSRFSGSGSGTDFTFTITSLQPEDIGTYSCQQYDNLPLTFGGGTKVEIK |
| – | – | – | – | 5.9 nM | 0.05 | 0.00021 s⁻¹ | 35000 M⁻¹ s⁻¹ | 75110_04F22A (antibody, V domains shown, Tested as antibody purified from AlivaMab Mouse hybridoma supernatant (captured by anti-mouse IgG Fc)) VH: EVQLVESGGGLVQPGGSLRLSCAASGFTFSSYDIHWVRQATGKGLEWVSTIGTAGDTYYPGSVKGRFTISRENAKNSLYLQMNSLRAGDTAVYYCARGGYYYYGMDVWGQGTTVTVSS VL: EIVLTQSPGTLSLSPGERATLSCRASQSVYSSYLAWYQQKPGQAPRLLIYGASSRATGIPDRFSGSGSGTDFTLTISRLEPEDFAVYYCQQFGTSPFTFGPGTKVDIK |
| – | – | – | – | < 0.001 nM | 0.07 | < 1e-07 s⁻¹ | 24000 M⁻¹ s⁻¹ | 75110_04P06A (antibody, V domains shown, Tested as antibody purified from AlivaMab Mouse hybridoma supernatant (captured by anti-mouse IgG Fc)) VH: EVQLVESGGGLVQPGGSLRLSCAASGFTFSNYDMHWVRQATGKGLEWVSTIGTAGDTYYPGSVKGRFTISRENAKNSLYLQMNSLRAGDTAVYYCARGGDYYYGMDVWGQGTTVTVSS VL: EIVLTQSPDTLSLSPGERATLSCRASQSLSSVYLAWYQQKPGQAPRLLIYGASSRATGIPDRFSGSGSGTDFTLTINRLEPEDFVVYYCQQYGSSPFTFGPGTKVDIK |
| – | – | – | – | 66 nM | 0.05 | 8.6e-05 s⁻¹ | 1300 M⁻¹ s⁻¹ | 75110_02I18A (antibody, V domains shown, Tested as antibody purified from AlivaMab Mouse hybridoma supernatant (captured by anti-mouse IgG Fc)) VH: EVQVVESGGGLVQPGGSLRLSCAASGFTFSSYDMHWVRQATGKGLEWVSTIGTAGDTYYPGSVKGRFTISRENAKNSLYLQMNSLRAGDTAVYYCARGGYYYYGMDVWGQGTTVTVSS VL: EIVLTQSPGTLSLSPGERATLSCRASQSVSSSYLAWYQQKPGQSPRLLIHGASSRATGIPDRVSGSGSGTDFTLTISRLEPEDFAVYYCQQYGSSPFTFGPGTKVDIK |
| – | – | – | – | 1.7 nM | 0.11 | 7.2e-05 s⁻¹ | 42000 M⁻¹ s⁻¹ | 75110_01G11A (antibody, V domains shown, Tested as antibody purified from AlivaMab Mouse hybridoma supernatant (captured by anti-mouse IgG Fc)) VH: EVQLVESGGGLVQPGGSLRLSCAASGFTFSSYDMHWVRQATGKGLEWVSTIGTAGDTYYPGSVKGRFTISRENARNSLFLQMNSLRAGDTAVYYCARGGDYYYGMDVWGQGTTVTVSS VL: EIVLTQSPGTLSLFPGERATLSCRASQNTYSSYLAWYQQKPGQAPRLLIYGASNRATGIPDRFSGSGSGTDFTLTISRLEPEDFAVYYCQQHGTSPFTFGPGTKVDIK |
| – | – | – | – | 2.8 nM | 0.09 | 0.00012 s⁻¹ | 43000 M⁻¹ s⁻¹ | 75110_01J17A (antibody, V domains shown, Tested as antibody purified from AlivaMab Mouse hybridoma supernatant (captured by anti-mouse IgG Fc)) VH: EVQLVESGGGLVQPGGSLRLSCAASGFTFSSYDMHWVRQGTGKGLEWVSTIGTADDTYYPGSVKGRFTISRENAENSLYLQMNSLRAGDTAVYYCARGGDYYYGMDVWGQGTTVTVSS VL: EIVLAQSPGTLSLSPGERATLSCRASQSVYISYLAWYQQKPGQAPRLLIYGASSRATGIPDRFSGSGSGTDFTLTITRLEPEDFAVYYCQQFGSSPFTFGPGTKVDFK |
| – | – | – | – | < 0.001 nM | 0.05 | < 1e-07 s⁻¹ | 19000 M⁻¹ s⁻¹ | 75110_05F19A (antibody, V domains shown, Tested as antibody purified from AlivaMab Mouse hybridoma supernatant (captured by anti-mouse IgG Fc)) VH: EVQLVESGGGLVQPGGSLRLSCAASGFTFSNYDVHWVRQPTGKGLEWVSTIGTAGDTYYPGSVKGRFTISRENAKNSLYLQMNSLRAGDTAVYYCARGGYDYYGLDVWGQGTTVTVSS VL: not shown |
| – | – | – | – | 0.26 nM | 0.14 | 2e-05 s⁻¹ | 77000 M⁻¹ s⁻¹ | 75110_01E08A (antibody, V domains shown, Tested as antibody purified from AlivaMab Mouse hybridoma supernatant (captured by anti-mouse IgG Fc)) VH: EVQLVESGGGLVQPGGSLRLSCAASGFTFNNYDMHWVRQATGKGLEWVSTIGTAGDTYYPASVKGRFTIYRENAKNSLYLQMNSLRAGDTAVYYCARGGDYYYGMDVWGQGTTVTVSS VL: not shown |
| – | – | – | – | < 0.001 nM | 0.05 | < 1e-07 s⁻¹ | 23000 M⁻¹ s⁻¹ | 75110_01K10A (antibody, V domains shown, Tested as antibody purified from AlivaMab Mouse hybridoma supernatant (captured by anti-mouse IgG Fc)) VH: EVQLVESGGALVQPGGSLRLSCAASGFTFRNYDMHWVRQATGKGLEWVSTIGTAGDTYYPGSVKGRFTISRENAKNSLYLQMNSLRAGDTAVYYCARGGDYYYGMDVWGQGTTVTVSS VL: EIVLTQSPDTLSLSPGERATLSCRASQSLSSVYLAWYQQKPGQAPRLLIYGASSRATGIPDRFSGTGSGTDFTLTISRLEPEDFAVYYCQQYGSSPFTFGPGTKVDIK |
| – | – | – | – | 2.1 nM | 0.08 | 6.1e-05 s⁻¹ | 28000 M⁻¹ s⁻¹ | 75110_01N04A (antibody, V domains shown, Tested as antibody purified from AlivaMab Mouse hybridoma supernatant (captured by anti-mouse IgG Fc)) VH: EVQLVESGGGLVQPGGSLRLSCAASGFTFSNYDMHWVRQATGKGLEWVSTIGTAGDTYYPGSVKGRFTISRENAKNSLYLQMNSLRAGDTAVYYCARGGDFYYGLDVWGQGTTVTVSS VL: not shown |
| – | – | – | – | 14 nM | 0.36 | 0.0014 s⁻¹ | 100000 M⁻¹ s⁻¹ | 75110_01A06A (antibody, V domains shown, Tested as antibody purified from AlivaMab Mouse hybridoma supernatant (captured by anti-mouse IgG Fc)) VH: EVQLVESGGGLVQPGGSLRLSCAASGFTFSSYWMSWVRQAPGKGLEWVANINEDGNEKYYVDSVKGRLTISRDNAKNSLYLQMNSLRAEDTAVYFCAREGGQWLSLDYWGQGALVTVSS VL: DIQMTQSPSSVSASVGDRVSITCRASQGISSWLAWYQQKPGKAPKILIYGASSLQSGVPSRFSGSGSGTDFTLTISSLQPEDFATYYCQQANSFPWTFGQGTKVEIK |
| – | – | – | – | 16 nM | 0.23 | 0.0016 s⁻¹ | 99000 M⁻¹ s⁻¹ | 75110_01H18A (antibody, V domains shown, Tested as antibody purified from AlivaMab Mouse hybridoma supernatant (captured by anti-mouse IgG Fc)) VH: QVQLQQWGAGLLKPSETLSLTCAVYGGSFSGYYWSWIRQSPGKGLEWIGEINQSGSTNYNPSLKSRVTISVDTSKNQFSLKLSSVTAADTAVYYCARVINWFDSWGQGTLVTVSS VL: DIQMTQSPSSVSASVGDRVTITCRASQGISSWLAWYQQKPGKAPKLLIYAASSFQSGVPSRFSGSGSGTDFTLTISSLQTEDFATYYCQQANSFPYTFGQGTRLEIK |
| – | – | – | – | 24 nM | 0.13 | 0.0047 s⁻¹ | 200000 M⁻¹ s⁻¹ | 75110_01C18A (antibody, V domains shown, Tested as antibody purified from AlivaMab Mouse hybridoma supernatant (captured by anti-mouse IgG Fc)) VH: EVQLVESGGGLIQPGGSLRLSCAASGFTVSSNYMNWVRQAPGKGLEWVSVIYAGDNTYSADSVKGRFTISRDNSNNTLCLQMNSLRAEDTAVYYCAREGGTTGAFDIWGQGTMVTVSS VL: DIQMTQSPSSVSASVGDRVTITCRASQGINSWLAWYQQKPGKAPKLLIYAASSLQSGVPSRFSGSGSGTDFTLTISSLQPEDFATYYCQQGNSFPYTFGQGTKLEIK |
| – | – | – | – | 110 nM | 0.1 | 0.0042 s⁻¹ | 39000 M⁻¹ s⁻¹ | 75110_04K10A (antibody, V domains shown, Tested as antibody purified from AlivaMab Mouse hybridoma supernatant (captured by anti-mouse IgG Fc)) VH: EVQLVESGGGLVQPGGSLRLSCAASGFTFSSYWMSWVRQAPGKGLEWVANINQDGSEKYYVDSVKGRFTISRDNAKNSLYLQLNSLRAEDTAMYYCAREGGQWLSLDYWGQGTLVTVSS VL: DIQMTQSPSSVSASVGDRVTITCRASQGISSWLAWYQQKPGKAPKVLIYGVSSFQSGVPSRFSGSGSGTDFILTISSLQPEDFATYYCQQANSFPWTFGQGTKVEIK |
| – | – | – | – | 10 nM | 0.05 | 0.0008 s⁻¹ | 78000 M⁻¹ s⁻¹ | 75110_03D16A (antibody, V domains shown, Tested as antibody purified from AlivaMab Mouse hybridoma supernatant (captured by anti-mouse IgG Fc)) VH: EVQLVESGGGLVQPGGSLRLSCAASGFTFSSYWMSWVRQAPGKGLEWVANINQDGGEKYYVDSVKGRFTISRDNAKNSLYLQMNSLRAEDTAVYYCVREGGQWLALDYWGQGTLVTVSS VL: DIQMTQSPSSVSASVGDRVTITCRASQGISSWLTWYQQKPGKAPKFLIYAASSLQSGVPSRFSGSGFGTDFTLTISSLQPEDFATYYCQQANSFPWTFGQGTKVEIK |
| – | – | – | – | 11 nM | 0.25 | 0.0017 s⁻¹ | 160000 M⁻¹ s⁻¹ | 75110_02N15A (antibody, V domains shown, Tested as antibody purified from AlivaMab Mouse hybridoma supernatant (captured by anti-mouse IgG Fc)) VH: EVQLVESGGGLVQPGGSLRLSCAASGFTFSSYWMSWVRQAPGKGLEWVANINEDGNEKYYVDSVKGRFTISRDNAKNSLFLQMNSLRAEDTAVYFCAREGGQWLALDHWGQGALVTVSS VL: DIQMTQSPSSVSASVGDRVTITCRASQGISSWLAWYQQKPGKAPKFLISGASSLQSGVPSRFSGSGSGTDFTLTISSLQPEDFATYYCQQANSFPWTFGQGTKVEFK |
